Experimental findings from patent publication US20190040368 are described below.

In the data set the test system is recombinant human iduronate-2 sulfatase (rhIDS).
recombinant human iduronate-2 sulfatase (rhIDS), sequence (chain, as listed by the source): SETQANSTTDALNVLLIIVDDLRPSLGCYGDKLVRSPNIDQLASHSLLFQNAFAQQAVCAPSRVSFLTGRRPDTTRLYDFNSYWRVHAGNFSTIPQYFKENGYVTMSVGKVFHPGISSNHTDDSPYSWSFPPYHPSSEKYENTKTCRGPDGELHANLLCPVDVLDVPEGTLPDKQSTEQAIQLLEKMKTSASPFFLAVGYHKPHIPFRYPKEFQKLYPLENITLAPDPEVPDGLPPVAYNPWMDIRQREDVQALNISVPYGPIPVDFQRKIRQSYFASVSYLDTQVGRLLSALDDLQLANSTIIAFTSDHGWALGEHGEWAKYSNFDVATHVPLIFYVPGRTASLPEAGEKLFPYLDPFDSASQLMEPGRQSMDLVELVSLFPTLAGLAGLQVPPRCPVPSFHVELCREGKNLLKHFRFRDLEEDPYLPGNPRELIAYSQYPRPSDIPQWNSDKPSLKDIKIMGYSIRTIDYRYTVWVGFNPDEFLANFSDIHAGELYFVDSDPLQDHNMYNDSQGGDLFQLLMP

Dendroctonus ponderosa Lip2-DpFGE-His6-HDEL fusion construct, sequence (chain, as listed by the source): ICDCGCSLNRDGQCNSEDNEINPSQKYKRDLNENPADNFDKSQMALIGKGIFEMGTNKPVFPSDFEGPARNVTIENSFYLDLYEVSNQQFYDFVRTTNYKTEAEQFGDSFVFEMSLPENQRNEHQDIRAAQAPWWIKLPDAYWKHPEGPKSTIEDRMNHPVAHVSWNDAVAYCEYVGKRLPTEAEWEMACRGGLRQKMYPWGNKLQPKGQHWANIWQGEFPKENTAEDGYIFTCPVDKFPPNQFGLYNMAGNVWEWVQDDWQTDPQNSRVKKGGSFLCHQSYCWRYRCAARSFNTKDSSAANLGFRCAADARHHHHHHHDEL

For “Dendroctonus ponderosa Lip2-DpFGE-His6-HDEL fusion construct”, the % activity of rhIDS; co-expression with DpFGE stood at 5%.
